Measured values published in patent US12295997B2, “Prostate neoantigens and their uses” (Janssen Biotech, Inc., priority 2020, dated 2025).

Assays:
Experiment in all cases: In vitro binding of neoantigens to class I MHC (UV peptide exchange, HLA class I ELISA)
Settings in all cases: 100% = same binding as positive control peptide
HLA-B*07:02 = HLA-B*07:02 (Homo sapiens, UniProt P01889)
Procedure: (§1) The 9 mer peptides identified by bioinformatics analysis were analyzed for their binding propensities to 6 common HLA class I alleles (HLA-A*01:01, A*02:01, A*03:01, A*24:02, B*07:02, B*08:01). The principle of the method is briefly described below and consists of two parts, one involving exchange of peptide with a positive control induced by Ultraviolet (UV) radiation, and the second is an enzyme immunoassay to detect stable HLA-peptide and empty HLA complexes.
(§2) HLA-bound peptides are critical for the stability of the HLA complex. A conditional HLA class I complex was stabilized by an UV-labile peptide utilizing a different peptide (Pos) for each HLA (Pos: HLA-A*01:01: […](SEQ ID NO: 409), HLA-A*02:01: […] (SEQ ID NO: 410), HLA-A*03:01: […] (SEQ ID NO: 411), HLA-A*24:02: […] (SEQ ID NO: 412), HLA-B*07:02: […] (SEQ ID NO: 413), HLA-B*08:01: […] (SEQ ID NO: 414), which could be cleaved by UV irradiation when bound to the HLA molecule. Upon cleavage, the resulting peptide fragments dissociated from the HLA class I complex since their length was insufficient to bind stably to HLA. Under the conditions in which peptide cleavage was performed (neutral pH, on melting ice), the peptide-free HLA complex remained stable.
(§3) The exchange efficiency between the peptide of interest and Pos was analyzed using an HLA class I ELISA. The combined technologies allowed the identification of ligands for an HLA molecule of interest which are potentially immunogenic.
(§4) Exchange control peptide Pos was a high affinity binder to the relevant HLA class I allele while exchange control peptide Neg was a non-binder. The UV control represented UV-irradiation of conditional HLA class I complex in the absence of a rescue peptide.
(§5) The HLA class I ELISA is an enzyme immunoassay based on the detection of beta2-microglobulin (B2M) of (peptide-stabilized) HLA class I complexes. To this end streptavidin was bound onto polystyrene microtiter wells. After washing and blocking, HLA complex present in exchange reaction mixtures or ELISA controls was captured by the streptavidin on the microtiter plate via its biotinylated heavy chain. Non-bound material was removed by washing. Subsequently, horseradish peroxidase (HRP)-conjugated antibody to human B2M was added. The HRP-conjugated antibody binds only to an intact HLA complex present in the microtiter well because unsuccessful peptide exchange results in disintegration of the original UV-sensitive HLA complex upon UV illumination. In the latter case B2M was removed during the washing step. After removal of non-bound HRP conjugate by washing, a substrate solution was added to the wells. A coloured product formed in proportion to the amount of intact HLA complex present in the samples. After the reaction was terminated by the addition of a stop solution, absorbance was measured in a microtiter plate reader. The absorbance was normalized to the absorbance of an exchange control peptide (represents 100%). Suboptimal HLA binding of peptides with a moderate to low affinity for HLA class I molecules can also be detected by this ELISA technique (Rodenko, B et al. (2006) Nature Protocols 1: 1120-32).
(§6) Peptides that had 10% or greater exchange efficiency in one of the 6 HLA alleles were considered for further immunogenicity testing and analysis.
(§7) Binding of select neoepitopes to HLA-A*01:01, HLA-A*02:01, HLA-A*03:01, HLAA*24:02, HLAAB*07:02 and HLA-B*08:01 was evaluated using the assay described in Example 1. […] As a criterion for further evaluation, peptides with an exchange rate of at least 10% with the corresponding Pos peptide for at least one of the 6 HLA alleles that we considered for further evaluation. The exchange rates with the allele specific Pos peptides, of the 24 neoantigens so identified are summarized below in Table 17. Higher percentages correspond to stronger binding to the HLA allele. […]

HLA-A*02:01 = HLA-A*02:01 (Homo sapiens, UniProt P04439, D140Y/D185E/D98H/E176V/E277Q/G131W/G231S/I119V/I121R/I166T/I218V/L300P/L318F/N151K/N90K/P208A/P217A/Q86G/Q94H/R138H/R169H/T345S)
Procedure: as §1, §2, §3, §4, §5, §6, §7

HLA-A*24:02 = HLA-A*24:02 (Homo sapiens, UniProt P04439, D101N/D140Y/D185E/E176V/E190D/F33S/G103R/G107R/I119L/I121M/I306V/K335N/L105A/L180Q/L300P/N151K/N90K/Q86E/Q94H/R106L/R138H/R89G/T104I/T345S/V100E/W191G/Y123F)
Procedure: as §1, §2, §3, §4, §5, §6, §7

HLA-B*08:01 = HLA-B*08:01 (Homo sapiens, UniProt P01889, A93T/A95T/D138N/E176V/E187T/K202T/Q94N/R180D/S35A/V36M/Y33D/Y91F)
Procedure: as §1, §2, §3, §4, §5, §6, §7

HLA-A*01:01 = HLA-A*01:01 (Homo sapiens, UniProt P04439, A114D/A174V/A182V/D101N/D185E/E176A/E190D/L180R/Q94H/R68K/S129P/T187R/V100A/V91M/W191G)
Procedure: as §1, §2, §3, §4, §5, §6, §7

| Molecule | Exchange rate with allele specific Pos peptide, HLA-B*07:02 (HLA-B*07:02) [%] | Exchange rate with allele specific Pos peptide, HLA-A*02:01 (HLA-A*02:01) [%] | Exchange rate with allele specific Pos peptide, HLA-A*24:02 (HLA-A*24:02) [%] | Exchange rate with allele specific Pos peptide, HLA-B*08:01 (HLA-B*08:01) [%] | Exchange rate with allele specific Pos peptide, HLA-A*01:01 (HLA-A*01:01) [%] |
| --- | --- | --- | --- | --- | --- |
| P46 (DDRNTFDIVWWCPMSRLRLALTVPPSTTTTCVTVPAWAA; listed as Homo sapiens) [Peptide P46] | 64.8 | 14.4 | −0.4 | 14.5 | 2.4 |
| P56 (PKSEVRAKCKFSILNAK; listed as Homo sapiens) [Peptide P56] | 82.5 | 8.4 | 0.5 | 38 | 2.6 |
| P58 (MMAEIISVHVPKILSGK; listed as Homo sapiens) [Peptide P58] |  | 11.8 | 0.2 | 5.3 | 2.5 |
| P60 (CYLRRQKRLKCEKQPGA; listed as Homo sapiens) [Peptide P60] | 6.1 | 7.9 | 0.9 | 10.2 | 3.1 |
| P61 (MFENGCYLGRQKRFKCE; listed as Homo sapiens) [Peptide P61] |  | 5.8 | 90.3 | 3.6 | 1.7 |
| P73 (DSSGNLLERNSFEVRV; listed as Homo sapiens) [Peptide P73] | 8.7 | 89.2 | 0.5 | 2.6 | 2.1 |
| P97 (GYLRMQGLMAQRLLLR; listed as Homo sapiens) [Peptide P97] | 7 | 4.6 | 0.1 | 2.7 | 2.5 |
| P98: neoantigen 9 mer fragment used for PBMC stimulation (FIG. 5D) (IVWWCPMSR; listed as Homo sapiens) [Neoantigen P98] | 6.7 | 7.9 | −0.1 | 2.4 | 2.5 |
| SLYHREKQLIAMDSAI (listed as Homo sapiens) [Neoantigen P22] |  | 46.9 | 0 | 3.9 | 4.4 |
| YEAGMTLGEKFRVGNCKHLKMTRP (listed as Homo sapiens) [Neoantigen P82] | 12.9 | 6.3 | −0.1 | 1.4 | 1.5 |
| YEAGMTLGGKILFFLFLLLPLSPFSLIF (listed as Homo sapiens) [Neoantigen P87] | 5 | 64 | 0.2 | 3.1 | 1.1 |
| P19 (peptide, listed as Homo sapiens) WTPIPVLTRWPLPHPPPWRRATSCRMARSSPSATSGSSVRRRCSSLPSWVWNLAASTRPRSTPS | 91.3 | 8.2 | 0.1 | 14.5 | 5.2 |
